Conditions: Aspergillus oryzae (strain ATCC 42149 / RIB 40), pH 7, 25 °C, GdnHCl, CD, cacodylate 0.013 M, reversible: yes, whole UniProt chain shown

B1: Guanyl-specific ribonuclease T1 wild type, P00651 (protein)
chain: MMYSKLLTLTTLLLPTALALPSLVERACDYTCGSNCYSSSDVSTAQAAGYQLHEDGETVGSNSYPHKYNNYEGFDFSVSSPYYEWPILSSGDVYSGGSPGADRVVFNENNQLAGVITHTGASGNNFVECT
In the case of B1, the denaturant m value ((NH4)2SO4 0.15 M) is reported as 2.85 kcal/mol/M, the “denaturant midpoint (higher = more stable)” value (shortened to “denaturant midpoint”) ((NH4)2SO4 0.15 M) is reported as 3.16 M and the unfolding free energy ((NH4)2SO4 0.15 M) is reported as 9.6 kcal/mol. The denaturant m value ((NH4)2SO4 0.30 M) was 2.9 kcal/mol/M, the “denaturant midpoint” value ((NH4)2SO4 0.30 M) was 3.37 M and the unfolding free energy ((NH4)2SO4 0.30 M) was 10.3 kcal/mol. For the same protein, the denaturant m value (CsCl 0.49 M) was 3.18 kcal/mol/M, the “denaturant midpoint” value (CsCl 0.49 M) was 2.81 M and the unfolding free energy (CsCl 0.49 M) was 8.9 kcal/mol. For the same protein, the denaturant m value (KCl 0.1 M) was 3.04 kcal/mol/M, the “denaturant midpoint” value (KCl 0.1 M) was 2.9 M and the unfolding free energy (KCl 0.1 M) was 8.8 kcal/mol. The denaturant m value (Li2SO4 0.20 M) was 2.82 kcal/mol/M, the “denaturant midpoint” value (Li2SO4 0.20 M) was 3.16 M and the unfolding free energy (Li2SO4 0.20 M) was 9.6 kcal/mol. The denaturant m value (Li2SO4 0.40 M) was 2.82 kcal/mol/M, the “denaturant midpoint” value (Li2SO4 0.40 M) was 3.35 M and the unfolding free energy (Li2SO4 0.40 M) was 10.2 kcal/mol. For the same protein, the denaturant m value (LiBr 0.76 M) was 3.14 kcal/mol/M, the “denaturant midpoint” value (LiBr 0.76 M) was 2.15 M and the unfolding free energy (LiBr 0.76 M) was 6.55 kcal/mol. For the same protein, the denaturant m value (LiBr 1.52 M) was 3.41 kcal/mol/M, the “denaturant midpoint” value (LiBr 1.52 M) was 1.48 M and the unfolding free energy (LiBr 1.52 M) was 4.51 kcal/mol. For the same protein, the denaturant m value (LiCi 0.50 M) was 2.71 kcal/mol/M, the “denaturant midpoint” value (LiCi 0.50 M) was 2.75 M and the unfolding free energy (LiCi 0.50 M) was 8.36 kcal/mol. The denaturant m value (LiCi 0.99 M) was 3.13 kcal/mol/M, the “denaturant midpoint” value (LiCi 0.99 M) was 2.57 M and the unfolding free energy (LiCi 0.99 M) was 7.8 kcal/mol. For the same protein, the denaturant m value (LiSCN 0.09 M) was 3.05 kcal/mol/M, the “denaturant midpoint” value (LiSCN 0.09 M) was 2.72 M and the unfolding free energy (LiSCN 0.09 M) was 8.27 kcal/mol. For the same protein, the denaturant m value (LiSCN 0.34 M) was 2.87 kcal/mol/M, the “denaturant midpoint” value (LiSCN 0.34 M) was 2.06 M and the unfolding free energy (LiSCN 0.34 M) was 6.25 kcal/mol. The denaturant m value (LiSCN 0.69 M) was 3.08 kcal/mol/M, the “denaturant midpoint” value (LiSCN 0.69 M) was 1.34 M and the unfolding free energy (LiSCN 0.69 M) was 4.08 kcal/mol. The denaturant m value (NH4Cl 0.45 M) was 3.02 kcal/mol/M, the “denaturant midpoint” value (NH4Cl 0.45 M) was 2.83 M and the unfolding free energy (NH4Cl 0.45 M) was 8.5 kcal/mol. For the same protein, the denaturant m value (Na2SO4 0.15 M) was 2.83 kcal/mol/M, the “denaturant midpoint” value (Na2SO4 0.15 M) was 3.12 M and the unfolding free energy (Na2SO4 0.15 M) was 9.49 kcal/mol. For the same protein, the denaturant m value (NaBr 0.50 M) was 3.42 kcal/mol/M, the “denaturant midpoint” value (NaBr 0.50 M) was 2.53 M and the unfolding free energy (NaBr 0.50 M) was 7.7 kcal/mol. The denaturant m value (NaBr 0.99 M) was 2.97 kcal/mol/M, the “denaturant midpoint” value (NaBr 0.99 M) was 2.27 M and the unfolding free energy (NaBr 0.99 M) was 6.91 kcal/mol. For the same protein, the denaturant m value (NaSCN 0.25 M) was 3.11 kcal/mol/M, the “denaturant midpoint” value (NaSCN 0.25 M) was 2.39 M and the unfolding free energy (NaSCN 0.25 M) was 7.27 kcal/mol. For the same protein, the denaturant m value (NaSCN 0.49 M) was 2.93 kcal/mol/M, the “denaturant midpoint” value (NaSCN 0.49 M) was 1.91 M and the unfolding free energy (NaSCN 0.49 M) was 5.8 kcal/mol. The denaturant m value (RbCl 0.50 M) was 2.89 kcal/mol/M, the “denaturant midpoint” value (RbCl 0.50 M) was 2.89 M and the unfolding free energy (RbCl 0.50 M) was 8.4 kcal/mol.
